Assay results reported in publication PMC5040827.

These substances were tested against PGT121 (assay: SPR). Details: average of two or three experiments.

Substance	Kd [µM]
BG505 T332N gp120 5MUT (V134Y; N136P; I138L; D140N; one further mutation not printed)	0.0057

Each substance was assayed against GL_(CDR3rev4) (assay: SPR). Details: average of two or three experiments.

Substance	Kd [µM]
BG505 T332N gp120 3MUT (T135A; T139I; one further mutation not printed)	> 28
BG505 T332N gp120 5MUT (V134Y; N136P; I138L; D140N; one further mutation not printed)	> 34
BG505 T332N gp120 7MUT (T135A; T139I; V134Y; N136P; I138L; D140N; one further mutation not printed)	> 36
BG505 T332N gp120 10MUT (T135A; T139I; V134Y; N136P; I138L; D140N; N137F; T320F; Q328M; one further mutation not printed)	> 150

The substances below were run against MD39-10MUT (assay: SPR). Details: not given.

Substance	Kd [µM]
PGDM1400	0.006
PGT121	0.0008
PGT128	0.003
PGT151	0.035
VRC01	0.142
